Literature values as cited in patent publication US9421247B2, “Biodegradable nanoparticles as novel hemoglobin-based oxygen carriers and methods of using the same” (Vindico NanoBio Technology Inc., priority 2010, dated 2016).

Substance	adverse physiological effects on infusion/transfusion into animals
PolyHeme™: commercial acellular HBOC (Northfield Lab, Evanston, Ill., USA)	induce vasoconstriction
free hemoglobin: cell-free hemoglobin infused into animals	significant vasoconstriction and kidney damage
